Each block holds one binder with its values, some of them ahead of it. *1 amine or outer side, *2 acyl side, *3 side chain or, on linkers, in order; H or OH if unused. Side-chain parts run from the residue outwards. [ ]: non-standard residue; d: D form. The star is where a group is joined. C18 diacid = O=C(O)CCCCCCCCCCCCCCCCC(=O)*; C16 diacid = O=C(O)CCCCCCCCCCCCCCC(=O)*; γGlu = O=C(O)[C@H](CCC(=O)[*:2])N[*:1]; αMeL = CC(C)C[C@](C)(N)C(=O)O; Api = NC1(C(=O)O)CCNCC1; AEEA = NCCOCCOCC(=O)O; Aib = CC(C)(N)C(=O)O; Propionyl = CCC(=O)*; Butyryl = CCCC(=O)*
Experiments:
CRF1R receptor = target: T1, CRF1R receptor (UniProt P34998 24-415, limits assumed); test: cell-based or functional assay
T1 sequence (looked up): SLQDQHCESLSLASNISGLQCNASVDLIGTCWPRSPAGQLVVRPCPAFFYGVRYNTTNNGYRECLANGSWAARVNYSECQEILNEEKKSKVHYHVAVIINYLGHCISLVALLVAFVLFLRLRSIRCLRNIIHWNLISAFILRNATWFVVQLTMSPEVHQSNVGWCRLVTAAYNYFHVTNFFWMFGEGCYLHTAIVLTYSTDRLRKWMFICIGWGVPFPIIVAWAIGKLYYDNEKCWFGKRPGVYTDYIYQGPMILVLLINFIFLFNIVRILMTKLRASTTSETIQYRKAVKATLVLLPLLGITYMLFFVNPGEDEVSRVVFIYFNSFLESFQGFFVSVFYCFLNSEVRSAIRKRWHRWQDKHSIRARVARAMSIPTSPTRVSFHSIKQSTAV

[1] = target: human corticotropin-releasing factor 2a (CRF2a receptor) (human), Q13324; test: cell-based or functional assay
human corticotropin-releasing factor 2a (CRF2a receptor) (human), Q13324, sequence (Q13324 20-411): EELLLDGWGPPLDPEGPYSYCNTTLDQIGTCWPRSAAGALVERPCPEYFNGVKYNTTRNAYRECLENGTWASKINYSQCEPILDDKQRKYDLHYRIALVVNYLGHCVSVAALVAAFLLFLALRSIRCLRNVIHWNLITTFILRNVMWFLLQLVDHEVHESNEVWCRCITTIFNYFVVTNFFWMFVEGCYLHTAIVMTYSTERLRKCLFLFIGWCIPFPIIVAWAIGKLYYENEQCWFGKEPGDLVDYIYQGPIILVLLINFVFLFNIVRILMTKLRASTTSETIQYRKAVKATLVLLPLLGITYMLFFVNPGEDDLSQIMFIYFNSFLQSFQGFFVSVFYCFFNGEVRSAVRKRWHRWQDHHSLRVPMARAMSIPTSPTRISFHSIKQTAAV

Emax (% I) (CRF1R receptor): 0%
EC50 [nM] (cAMP) [1]: 6.07 nM
B1: SEQ ID NO 99 (peptide)
peptide: Ac-VLSLD[dV]PIKLK([AEEA-AEEA-γGlu-C18 diacid])KILLEQEKQKKQREQAETN[Aib]QILAQV-NH2
SMILES: CC[C@H](C)[C@H](NC(=O)[C@H](CCC(N)=O)NC(=O)C(C)(C)NC(=O)[C@H](CC(N)=O)NC(=O)[C@@H](NC(=O)[C@H](CCC(=O)O)NC(=O)[C@H](C)NC(=O)[C@H](CCC(N)=O)NC(=O)[C@H](CCC(=O)O)NC(=O)[C@H](CCCNC(=N)N)NC(=O)[C@H](CCC(N)=O)NC(=O)[C@H](CCCCN)NC(=O)[C@H](CCCCN)NC(=O)[C@H](CCC(N)=O)NC(=O)[C@H](CCCCN)NC(=O)[C@H](CCC(=O)O)NC(=O)[C@H](CCC(N)=O)NC(=O)[C@H](CCC(=O)O)NC(=O)[C@H](CC(C)C)NC(=O)[C@H](CC(C)C)NC(=O)[C@@H](NC(=O)[C@H](CCCCN)NC(=O)[C@H](CCCCNC(=O)COCCOCCNC(=O)COCCOCCNC(=O)CC[C@H](NC(=O)CCCCCCCCCCCCCCCCC(=O)O)C(=O)O)NC(=O)[C@H](CC(C)C)NC(=O)[C@H](CCCCN)NC(=O)[C@@H](NC(=O)[C@@H]1CCCN1C(=O)[C@H](NC(=O)[C@H](CC(=O)O)NC(=O)[C@H](CC(C)C)NC(=O)[C@H](CO)NC(=O)[C@H](CC(C)C)NC(=O)[C@@H](NC(C)=O)C(C)C)C(C)C)[C@@H](C)CC)[C@@H](C)CC)[C@@H](C)O)C(=O)N[C@@H](CC(C)C)C(=O)N[C@@H](C)C(=O)N[C@@H](CCC(N)=O)C(=O)N[C@H](C(N)=O)C(C)C

Emax (% I) (CRF1R receptor): 24%
EC50 [nM] (cAMP) [1]: 0.39 nM
B2: SEQ ID NO 57 (peptide)
peptide: Ac-IVLSLD[dV]PIKLK([γGlu-C16 diacid])KILLEQEKQKKQREQAETN[Api]QILAQV-NH2
SMILES: CC[C@H](C)[C@H](NC(C)=O)C(=O)N[C@H](C(=O)N[C@@H](CC(C)C)C(=O)N[C@@H](CO)C(=O)N[C@@H](CC(C)C)C(=O)N[C@@H](CC(=O)O)C(=O)N[C@@H](C(=O)N1CCC[C@H]1C(=O)N[C@H](C(=O)N[C@@H](CCCCN)C(=O)N[C@@H](CC(C)C)C(=O)N[C@@H](CCCCNC(=O)CC[C@H](NC(=O)CCCCCCCCCCCCCCC(=O)O)C(=O)O)C(=O)N[C@@H](CCCCN)C(=O)N[C@H](C(=O)N[C@@H](CC(C)C)C(=O)N[C@@H](CC(C)C)C(=O)N[C@@H](CCC(=O)O)C(=O)N[C@@H](CCC(N)=O)C(=O)N[C@@H](CCC(=O)O)C(=O)N[C@@H](CCCCN)C(=O)N[C@@H](CCC(N)=O)C(=O)N[C@@H](CCCCN)C(=O)N[C@@H](CCCCN)C(=O)N[C@@H](CCC(N)=O)C(=O)N[C@@H](CCCNC(=N)N)C(=O)N[C@@H](CCC(=O)O)C(=O)N[C@@H](CCC(N)=O)C(=O)N[C@@H](C)C(=O)N[C@@H](CCC(=O)O)C(=O)N[C@H](C(=O)N[C@@H](CC(N)=O)C(=O)NC1(C(=O)N[C@@H](CCC(N)=O)C(=O)N[C@H](C(=O)N[C@@H](CC(C)C)C(=O)N[C@@H](C)C(=O)N[C@@H](CCC(N)=O)C(=O)N[C@H](C(N)=O)C(C)C)[C@@H](C)CC)CCNCC1)[C@@H](C)O)[C@@H](C)CC)[C@@H](C)CC)C(C)C)C(C)C

Emax (% I) (CRF1R receptor): 3%
EC50 [nM] (cAMP) [1]: 0.28 nM
B3: SEQ ID NO 112 (peptide)
peptide: Ac-IVLSLD[dV]PIK[αMeL]K([AEEA-AEEA-γGlu-C18 diacid])KILLEQEKQKKQREQAETNAQILAQV-NH2
SMILES: CC[C@H](C)[C@H](NC(C)=O)C(=O)N[C@H](C(=O)N[C@@H](CC(C)C)C(=O)N[C@@H](CO)C(=O)N[C@@H](CC(C)C)C(=O)N[C@@H](CC(=O)O)C(=O)N[C@@H](C(=O)N1CCC[C@H]1C(=O)N[C@H](C(=O)N[C@@H](CCCCN)C(=O)N[C@@](C)(CC(C)C)C(=O)N[C@@H](CCCCNC(=O)COCCOCCNC(=O)COCCOCCNC(=O)CC[C@H](NC(=O)CCCCCCCCCCCCCCCCC(=O)O)C(=O)O)C(=O)N[C@@H](CCCCN)C(=O)N[C@H](C(=O)N[C@@H](CC(C)C)C(=O)N[C@@H](CC(C)C)C(=O)N[C@@H](CCC(=O)O)C(=O)N[C@@H](CCC(N)=O)C(=O)N[C@@H](CCC(=O)O)C(=O)N[C@@H](CCCCN)C(=O)N[C@@H](CCC(N)=O)C(=O)N[C@@H](CCCCN)C(=O)N[C@@H](CCCCN)C(=O)N[C@@H](CCC(N)=O)C(=O)N[C@@H](CCCNC(=N)N)C(=O)N[C@@H](CCC(=O)O)C(=O)N[C@@H](CCC(N)=O)C(=O)N[C@@H](C)C(=O)N[C@@H](CCC(=O)O)C(=O)N[C@H](C(=O)N[C@@H](CC(N)=O)C(=O)N[C@@H](C)C(=O)N[C@@H](CCC(N)=O)C(=O)N[C@H](C(=O)N[C@@H](CC(C)C)C(=O)N[C@@H](C)C(=O)N[C@@H](CCC(N)=O)C(=O)N[C@H](C(N)=O)C(C)C)[C@@H](C)CC)[C@@H](C)O)[C@@H](C)CC)[C@@H](C)CC)C(C)C)C(C)C

Emax (% I) (CRF1R receptor): 10%
EC50 [nM] (cAMP) [1]: 0.38 nM
B4: SEQ ID NO 79 (peptide)
peptide: Butyryl-VLSLD[dV]PIKLK([γGlu-C16 diacid])KILLEQEKQKKQREQAETN[Aib]QILAQV-NH2
SMILES: CCCC(=O)N[C@H](C(=O)N[C@@H](CC(C)C)C(=O)N[C@@H](CO)C(=O)N[C@@H](CC(C)C)C(=O)N[C@@H](CC(=O)O)C(=O)N[C@@H](C(=O)N1CCC[C@H]1C(=O)N[C@H](C(=O)N[C@@H](CCCCN)C(=O)N[C@@H](CC(C)C)C(=O)N[C@@H](CCCCNC(=O)CC[C@H](NC(=O)CCCCCCCCCCCCCCC(=O)O)C(=O)O)C(=O)N[C@@H](CCCCN)C(=O)N[C@H](C(=O)N[C@@H](CC(C)C)C(=O)N[C@@H](CC(C)C)C(=O)N[C@@H](CCC(=O)O)C(=O)N[C@@H](CCC(N)=O)C(=O)N[C@@H](CCC(=O)O)C(=O)N[C@@H](CCCCN)C(=O)N[C@@H](CCC(N)=O)C(=O)N[C@@H](CCCCN)C(=O)N[C@@H](CCCCN)C(=O)N[C@@H](CCC(N)=O)C(=O)N[C@@H](CCCNC(=N)N)C(=O)N[C@@H](CCC(=O)O)C(=O)N[C@@H](CCC(N)=O)C(=O)N[C@@H](C)C(=O)N[C@@H](CCC(=O)O)C(=O)N[C@H](C(=O)N[C@@H](CC(N)=O)C(=O)NC(C)(C)C(=O)N[C@@H](CCC(N)=O)C(=O)N[C@H](C(=O)N[C@@H](CC(C)C)C(=O)N[C@@H](C)C(=O)N[C@@H](CCC(N)=O)C(=O)N[C@H](C(N)=O)C(C)C)[C@@H](C)CC)[C@@H](C)O)[C@@H](C)CC)[C@@H](C)CC)C(C)C)C(C)C

Emax (% I) (CRF1R receptor): 7%
EC50 [nM] (cAMP) [1]: 0.73 nM
B5: SEQ ID NO 78 (peptide)
peptide: Propionyl-VLSLD[dV]PIKLK([γGlu-C16 diacid])KILLEQEKQKKQREQAETN[Aib]QILAQV-NH2
SMILES: CCC(=O)N[C@H](C(=O)N[C@@H](CC(C)C)C(=O)N[C@@H](CO)C(=O)N[C@@H](CC(C)C)C(=O)N[C@@H](CC(=O)O)C(=O)N[C@@H](C(=O)N1CCC[C@H]1C(=O)N[C@H](C(=O)N[C@@H](CCCCN)C(=O)N[C@@H](CC(C)C)C(=O)N[C@@H](CCCCNC(=O)CC[C@H](NC(=O)CCCCCCCCCCCCCCC(=O)O)C(=O)O)C(=O)N[C@@H](CCCCN)C(=O)N[C@H](C(=O)N[C@@H](CC(C)C)C(=O)N[C@@H](CC(C)C)C(=O)N[C@@H](CCC(=O)O)C(=O)N[C@@H](CCC(N)=O)C(=O)N[C@@H](CCC(=O)O)C(=O)N[C@@H](CCCCN)C(=O)N[C@@H](CCC(N)=O)C(=O)N[C@@H](CCCCN)C(=O)N[C@@H](CCCCN)C(=O)N[C@@H](CCC(N)=O)C(=O)N[C@@H](CCCNC(=N)N)C(=O)N[C@@H](CCC(=O)O)C(=O)N[C@@H](CCC(N)=O)C(=O)N[C@@H](C)C(=O)N[C@@H](CCC(=O)O)C(=O)N[C@H](C(=O)N[C@@H](CC(N)=O)C(=O)NC(C)(C)C(=O)N[C@@H](CCC(N)=O)C(=O)N[C@H](C(=O)N[C@@H](CC(C)C)C(=O)N[C@@H](C)C(=O)N[C@@H](CCC(N)=O)C(=O)N[C@H](C(N)=O)C(C)C)[C@@H](C)CC)[C@@H](C)O)[C@@H](C)CC)[C@@H](C)CC)C(C)C)C(C)C

Emax (% I) (CRF1R receptor): 10%
EC50 [nM] (cAMP) [1]: 0.09 nM
B6: SEQ ID NO 47 (peptide)
peptide: Ac-IVLSLD[dV]PIKLK([γGlu-C16 diacid])KILLEQEKQKKQREQAETNAQILAQV-NH2
SMILES: CC[C@H](C)[C@H](NC(C)=O)C(=O)N[C@H](C(=O)N[C@@H](CC(C)C)C(=O)N[C@@H](CO)C(=O)N[C@@H](CC(C)C)C(=O)N[C@@H](CC(=O)O)C(=O)N[C@@H](C(=O)N1CCC[C@H]1C(=O)N[C@H](C(=O)N[C@@H](CCCCN)C(=O)N[C@@H](CC(C)C)C(=O)N[C@@H](CCCCNC(=O)CC[C@H](NC(=O)CCCCCCCCCCCCCCC(=O)O)C(=O)O)C(=O)N[C@@H](CCCCN)C(=O)N[C@H](C(=O)N[C@@H](CC(C)C)C(=O)N[C@@H](CC(C)C)C(=O)N[C@@H](CCC(=O)O)C(=O)N[C@@H](CCC(N)=O)C(=O)N[C@@H](CCC(=O)O)C(=O)N[C@@H](CCCCN)C(=O)N[C@@H](CCC(N)=O)C(=O)N[C@@H](CCCCN)C(=O)N[C@@H](CCCCN)C(=O)N[C@@H](CCC(N)=O)C(=O)N[C@@H](CCCNC(=N)N)C(=O)N[C@@H](CCC(=O)O)C(=O)N[C@@H](CCC(N)=O)C(=O)N[C@@H](C)C(=O)N[C@@H](CCC(=O)O)C(=O)N[C@H](C(=O)N[C@@H](CC(N)=O)C(=O)N[C@@H](C)C(=O)N[C@@H](CCC(N)=O)C(=O)N[C@H](C(=O)N[C@@H](CC(C)C)C(=O)N[C@@H](C)C(=O)N[C@@H](CCC(N)=O)C(=O)N[C@H](C(N)=O)C(C)C)[C@@H](C)CC)[C@@H](C)O)[C@@H](C)CC)[C@@H](C)CC)C(C)C)C(C)C
